Where no end group is shown, it is not given here.
How the values were obtained:
Assay in all cases: cell-based or functional assay
[1] = target: p38 MAPK (p38 Mitogen-Activated Protein Kinase)
[2] = target: T1, PRAK (p38-Regulated/Activated Protein Kinase) (UniProt Q8IW41 1-473)
T1 sequence: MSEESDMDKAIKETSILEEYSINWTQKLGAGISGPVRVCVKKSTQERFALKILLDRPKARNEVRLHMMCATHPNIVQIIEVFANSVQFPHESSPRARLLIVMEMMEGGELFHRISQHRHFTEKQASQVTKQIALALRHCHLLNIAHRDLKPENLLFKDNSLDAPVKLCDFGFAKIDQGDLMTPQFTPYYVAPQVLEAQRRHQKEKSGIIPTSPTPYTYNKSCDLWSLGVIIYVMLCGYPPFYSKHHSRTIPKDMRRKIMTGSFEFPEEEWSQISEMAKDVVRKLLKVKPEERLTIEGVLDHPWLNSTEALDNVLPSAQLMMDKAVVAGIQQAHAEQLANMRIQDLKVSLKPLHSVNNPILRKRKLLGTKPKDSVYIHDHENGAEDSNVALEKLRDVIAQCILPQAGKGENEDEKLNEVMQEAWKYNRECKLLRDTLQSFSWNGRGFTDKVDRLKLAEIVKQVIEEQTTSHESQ

[3] = target: T2, MKK6 (Mitogen-Activated Protein Kinase Kinase) (UniProt P52564 1-334)
T2 sequence: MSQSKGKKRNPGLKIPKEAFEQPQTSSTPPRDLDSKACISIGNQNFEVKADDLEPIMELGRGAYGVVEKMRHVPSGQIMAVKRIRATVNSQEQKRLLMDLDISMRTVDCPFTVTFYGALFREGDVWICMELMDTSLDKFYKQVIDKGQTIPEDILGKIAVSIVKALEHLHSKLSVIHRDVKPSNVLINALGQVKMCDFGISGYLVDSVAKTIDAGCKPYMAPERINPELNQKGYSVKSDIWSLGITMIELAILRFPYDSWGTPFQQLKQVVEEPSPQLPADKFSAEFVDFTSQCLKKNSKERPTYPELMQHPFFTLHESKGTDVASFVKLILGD

[4] = target: T3, MKK4 (Mitogen-Activated Protein Kinase Kinase 4) (UniProt P45985 1-399)
T3 sequence: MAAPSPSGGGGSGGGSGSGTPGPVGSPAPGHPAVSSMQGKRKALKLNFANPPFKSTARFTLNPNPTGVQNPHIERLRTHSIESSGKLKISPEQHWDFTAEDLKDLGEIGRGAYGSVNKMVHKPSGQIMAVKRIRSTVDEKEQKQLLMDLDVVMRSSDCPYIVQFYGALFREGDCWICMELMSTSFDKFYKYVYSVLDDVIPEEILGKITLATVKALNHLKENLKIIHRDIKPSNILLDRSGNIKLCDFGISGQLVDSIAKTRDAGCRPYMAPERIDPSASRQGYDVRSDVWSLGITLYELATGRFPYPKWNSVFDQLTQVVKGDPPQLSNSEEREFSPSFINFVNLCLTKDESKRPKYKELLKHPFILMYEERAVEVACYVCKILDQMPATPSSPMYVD

[5] = target: JNK (c-Jun N-terminal Kinase)
[6] = target: MEK1 (UniProt Q02750 1-393)

Binder: YARAAARQARAKALARQLGVAA (not fully specified (C-terminus)) [MMI-0100 (YARAAARQARAKALARQLGVAA; SEQ ID NO: 1)]
- Percent Activity (radiometric kinase assay, 100 µM peptide) [1]: 60 percent activity
- Percent Activity (radiometric kinase assay, 100 µM peptide) [2]: 100 percent activity
- Percent Activity (radiometric kinase assay, 100 µM peptide) [3]: 50 percent activity
- Percent Activity (radiometric kinase assay, 100 µM peptide) [4]: 90 percent activity
- Percent Activity (radiometric kinase assay, 100 µM peptide) [5]: 92 percent activity
- Percent Activity (radiometric kinase assay, 100 µM peptide) [6]: 68 percent activity

— US20110288036A1 (published 2011)
